Experiment [1] addresses recombinant human αvβ6 integrin (human) (UniProt P06756). The experiment in a line: direct integrin binding assay (near-infrared fluorescence scan of plates); microtiter plates coated with αvβ6 or αvβ8; peptide-IRDye conjugates incubated 1 h, washed, bound fluorescence read with Odyssey CLx; EC50.
Experiment [2] has as its target recombinant human αvβ8 integrin (human) (UniProt P06756). The experiment is described as above.
For experiment [3], the target named is recombinant murine αvβ6 integrin (murine) (UniProt P43406). The experiment is described as above.
Sequence of recombinant murine αvβ6 integrin (murine) (P43406 whole entry, chain 1 of 2): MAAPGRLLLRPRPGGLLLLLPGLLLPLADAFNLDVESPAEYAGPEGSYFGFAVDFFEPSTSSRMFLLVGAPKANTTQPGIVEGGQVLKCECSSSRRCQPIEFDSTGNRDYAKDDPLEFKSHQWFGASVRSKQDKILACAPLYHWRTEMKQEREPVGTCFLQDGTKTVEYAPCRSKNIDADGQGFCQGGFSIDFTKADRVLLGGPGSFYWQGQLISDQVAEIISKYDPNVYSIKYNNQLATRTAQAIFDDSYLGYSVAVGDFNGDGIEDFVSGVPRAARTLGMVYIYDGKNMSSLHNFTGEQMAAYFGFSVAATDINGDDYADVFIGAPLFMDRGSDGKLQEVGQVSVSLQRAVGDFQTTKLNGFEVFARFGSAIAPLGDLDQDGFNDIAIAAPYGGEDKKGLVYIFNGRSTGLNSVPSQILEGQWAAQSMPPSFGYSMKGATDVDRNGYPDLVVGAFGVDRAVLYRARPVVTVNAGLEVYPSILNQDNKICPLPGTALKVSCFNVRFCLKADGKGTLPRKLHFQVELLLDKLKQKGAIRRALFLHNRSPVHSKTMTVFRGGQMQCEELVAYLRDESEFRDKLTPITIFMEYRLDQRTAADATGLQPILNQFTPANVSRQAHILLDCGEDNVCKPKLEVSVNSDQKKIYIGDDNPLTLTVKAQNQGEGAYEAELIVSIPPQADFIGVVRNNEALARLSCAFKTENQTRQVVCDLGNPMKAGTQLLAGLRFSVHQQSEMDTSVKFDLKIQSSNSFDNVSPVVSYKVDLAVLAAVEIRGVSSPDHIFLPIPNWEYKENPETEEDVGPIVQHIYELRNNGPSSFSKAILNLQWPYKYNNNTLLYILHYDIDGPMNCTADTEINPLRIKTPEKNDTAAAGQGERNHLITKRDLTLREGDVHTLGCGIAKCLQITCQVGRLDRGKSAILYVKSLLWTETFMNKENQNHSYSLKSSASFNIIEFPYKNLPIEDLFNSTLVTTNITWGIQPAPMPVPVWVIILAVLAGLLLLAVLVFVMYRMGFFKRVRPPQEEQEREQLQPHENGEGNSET
Sequence of recombinant murine αvβ6 integrin (murine) (Q9Z0T9 whole entry, chain 2 of 2, further chain): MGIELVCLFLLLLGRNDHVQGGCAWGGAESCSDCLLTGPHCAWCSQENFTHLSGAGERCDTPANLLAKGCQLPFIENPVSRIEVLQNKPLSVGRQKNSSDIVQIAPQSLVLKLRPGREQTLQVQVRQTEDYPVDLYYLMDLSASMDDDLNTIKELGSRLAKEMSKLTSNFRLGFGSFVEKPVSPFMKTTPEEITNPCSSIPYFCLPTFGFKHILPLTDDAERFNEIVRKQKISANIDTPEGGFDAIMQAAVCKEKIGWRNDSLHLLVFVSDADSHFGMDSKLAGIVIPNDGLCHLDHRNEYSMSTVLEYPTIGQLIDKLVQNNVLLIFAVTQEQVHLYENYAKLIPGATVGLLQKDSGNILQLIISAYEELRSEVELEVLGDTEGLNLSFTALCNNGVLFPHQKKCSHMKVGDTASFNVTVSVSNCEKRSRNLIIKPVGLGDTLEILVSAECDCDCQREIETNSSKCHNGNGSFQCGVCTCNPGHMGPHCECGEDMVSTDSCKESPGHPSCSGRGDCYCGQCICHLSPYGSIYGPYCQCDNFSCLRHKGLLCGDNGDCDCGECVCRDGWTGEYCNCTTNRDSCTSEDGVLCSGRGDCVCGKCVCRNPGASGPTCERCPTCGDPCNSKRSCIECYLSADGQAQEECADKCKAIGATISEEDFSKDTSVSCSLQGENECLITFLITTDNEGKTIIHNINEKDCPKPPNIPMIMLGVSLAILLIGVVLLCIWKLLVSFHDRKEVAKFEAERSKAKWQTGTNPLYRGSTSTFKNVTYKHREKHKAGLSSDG
The target in experiment [4] is recombinant murine αvβ8 integrin (murine) (UniProt P43406). The description is as above.
Sequence of recombinant murine αvβ8 integrin (murine) (P43406 whole entry, chain 1 of 2): as the sequence (P43406 whole entry, chain 1 of 2) above
Sequence of recombinant murine αvβ8 integrin (murine) (Q0VBD0 whole entry, chain 2 of 2, further chain): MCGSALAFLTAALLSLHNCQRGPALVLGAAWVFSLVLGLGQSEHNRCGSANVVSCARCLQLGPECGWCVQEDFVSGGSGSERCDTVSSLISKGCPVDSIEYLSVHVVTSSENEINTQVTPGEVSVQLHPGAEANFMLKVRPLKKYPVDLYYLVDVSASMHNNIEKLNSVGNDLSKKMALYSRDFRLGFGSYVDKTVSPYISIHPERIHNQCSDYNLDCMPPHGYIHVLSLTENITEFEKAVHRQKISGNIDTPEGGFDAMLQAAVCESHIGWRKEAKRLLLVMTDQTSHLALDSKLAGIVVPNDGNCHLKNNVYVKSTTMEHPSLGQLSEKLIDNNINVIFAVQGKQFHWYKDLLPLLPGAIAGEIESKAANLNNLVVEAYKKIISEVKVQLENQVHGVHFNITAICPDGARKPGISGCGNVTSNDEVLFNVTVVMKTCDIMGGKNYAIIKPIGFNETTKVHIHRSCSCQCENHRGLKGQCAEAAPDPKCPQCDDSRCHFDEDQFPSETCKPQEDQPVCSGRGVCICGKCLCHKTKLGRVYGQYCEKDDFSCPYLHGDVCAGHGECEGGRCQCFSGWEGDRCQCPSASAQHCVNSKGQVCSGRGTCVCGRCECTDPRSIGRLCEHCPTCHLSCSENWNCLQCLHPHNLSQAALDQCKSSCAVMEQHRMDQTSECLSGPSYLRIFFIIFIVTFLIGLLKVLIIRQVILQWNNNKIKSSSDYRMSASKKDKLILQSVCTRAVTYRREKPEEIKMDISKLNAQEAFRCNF
In experiment [5] the target is recombinant human αvβ6 integrin (human) (UniProt P06756). The experiment is described as follows: ELISA; competitive integrin binding assay: αvβ6-coated plates, isoDGR peptide labeled with peroxidase as probe for the integrin-binding site; Ki. A general note: ELISA stands for enzyme-linked immunosorbent assay.

Ends that are not written are not given here.

By EC50 is commonly meant the concentration that produces a half-maximal response. By Ki is commonly meant a measure of affinity in units of concentration, obtained from inhibition or displacement.

Turning to C(maleimide‑IRDye 800CW)FETLRGEERILSILRHQNLLKELQD-NH2 [2a-IRDye conjugate], the EC50 in experiment [1], in experiment [2], in experiment [3] and in experiment [4] was above 100 nM each time.
Take C(maleimide‑NOTA)FETLRGEERILSILRHQNLLKELQD-NH2 [2a-NOTA conjugate]: in experiment [5], the Ki is above 1000 nM.
